# Reference: patent US20250136662A1, “CD95 POLYPEPTIDES” (Deutsches Krebsforschungszentrum Stiftung des öffentlichen …, priority 2021, published 2025)
# Changes are numbered by the printed parent chain. Numbers in names are those of the source.
# B1: double mutant: CD95 variant with R192E/K193E exchanges (cf. SEQ ID NO:31), expressed from lentiviral or AAV vector (protein)
# chain: MLGIWTLLPLVLTSVARLSSKSVNAQVTDINSKGLELRKTVTTVETQNLEGLHHDGQFCHKPCPPGERKARDCTVNGDEPDCVPCQEGKEYTDKAHFSSKCRRCRLCDEGHGLEVEINCTRTQNTKCRCKPNFFCNSTVCEHCDPCTKCEHGIIKECTLTSNTKCKEEGSQSNLGWLCLLLLPIPLIVWVKEEEVQKTCRKHRKENQGSHESPTLNPETVAINLSDVDLSKYITTIAGVMTLSQVKGFVRKNGVNEAKIDEIKNDNVQDTAEQVQLLRNWHQLHGKKEAYDTLIKDLKKANLCTLAEKIQTIILKDITSDSENSNFRNEIQSLV
# modifications: R192E/K193E double mutein (dM)
# B2: triple mutant: CD95 variant with R171E/R192E/K193E exchanges (cf. SEQ ID NO:32), expressed from lentiviral or AAV vector (protein)
# chain: B1 chain with Q171E
# modifications: R171E/R192E/K193E triple mutein (tM)
# B3: single mutant: CD95 variant with R171E exchange (cf. SEQ ID NO:30), expressed from lentiviral or AAV vector (protein)
# chain: B1 chain with Q171E, E192R, E193K
# modifications: R171E single mutein (sM)
# What was measured:
# Assay type in all cases: cell-based
# cell cycle = test: Cell cycle assessment of cells overexpressing CD95 variants; conditions: overexpressed using lentiviral vectors two weeks prior to cell cycle assessment
# Text: FIG. 6: Effect of CD95 variants on cell cycle. Shown is the percentage of cells in G2, S, or G1 phase, respectively, in cell overexpressing effector polypeptides. […] Abbreviations as in FIG. 5.
# Indicated variants were overexpressed using lentiviral vectors two weeks prior to cell cycle assessment.
# [1] = system: membrane lipid composition of cells; test: Lipidomics profiling of cells overexpressing CD95 variants (membrane lipid composition, UMAP clustering); conditions: overexpressed using lentiviral vectors two weeks prior to lipidomics profiling
# Text: (§1) FIG. 5: Changes of lipid composition of membranes of cells in the presence of CD95 variants. A) Shown are average mol % concentrations of the indicated lipid classes; Abbreviations: WT: wildtype CD95; KO: CD95-knockout; sM: single mutant (R171E), dM: double mutant (R192E/K193E); tM: triple mutant (R171E/R192E/K193E); PC: phosphatidylcholines; PE: phosphatidylethanolamines, PS: phosphatidylserines, PI: phosphatidylinositoles, SM: sphingomyelins, CE: cholesteryl esters. “a”X relates to acyl-X, e.g. aPC is Acyl-phosphatidylcholines; “e”X relates to Ether-X or X containing one odd-chain fatty acyl species. B) Clustering of cells based on lipid profile changes, UMAP representation. C) average cell size as cell area of cells expressing variants of CD95.
# (§2) Indicated variants were overexpressed using lentiviral vectors two weeks prior to lipidomics profiling. […] Also, average cell size was decreased in cells expressing the triple mutant CD95, very similar to CD95 KO cells.
# EGFR activation = test: Western blot pEGFR relative to total EGFR in T98G cells (Example 11); conditions: T98G cells serum starved, untreated or 100 ng/ml EGF-L for 10 mins
# Protocol: (§3) FIG. 10: Impact of CD95 mutants on activation of Akt and EGFR. […] Abbreviations as in FIG. 5.
# (§4) T98G cells were serum starved, control (Co) cells were left untreated otherwise stimulated with 100 ng/ml of EGF-L for 10 mins. Protein samples were analysed by western blot for pAKT (ser 473), pEGFR and pERK and the total amount of protein (pan antibody). Relative expression of the protein was calculated where phospho-proteins were normalized to their total proteins. […] TMD is CD95 with the indicated mutation(s). Protein lysates were also analysed for the level of cleaved and total caspase (FIG. 11).
# Caspase 8 cleavage = test: Caspase-8 cleavage in protein lysates of T98G cells (apoptosis); conditions: upon EGFR stimulation
# Protocol: FIG. 11: Impact of CD95 mutants on apoptosis (caspase-8 cleavage). Protein lysates were analysed for the level of cleaved and total caspase-8. […] Bar show, in each case from left to right, relative expression of total caspase, p44, p43, and p18.
# as §4
# transferrin uptake = test: Transferrin uptake assay (endocytotic activity), flow cytometry; conditions: lentiviral overexpression two weeks prior, uptake after 10, 20 and 30 min
# Protocol: FIG. 8: Effect of CD95 variants on endocytotic activity of cells. Shown is the relative transferrin uptake of treated cells over time, i.e. after 10, 20, and 30 min. Abbreviations as in FIG. 5.
# Indicated variants were overexpressed using lentiviral vectors two weeks prior to assessment of the endocytotic activity by a transferrin uptake assay. Transferrin uptake was assessed after the indicated time points via flow cytometry.
# [2] = system: Akt phosphorylation (Ser 473); test: Western blot, fraction of phosphorylated Akt in cells overexpressing CD95 variants (Example 8); conditions: lentiviral overexpression two weeks prior, untreated or 20 ng/ml CD95-ligand or 100 ng/ml EGF-L for 10 minutes
# Protocol: (§5) FIG. 7: Effect of CD95 variants on cell signaling; shown is relative content in pAkt and pEGFR in cells transfected to overexpress effector polypeptides as indicated. Abbreviations as in FIG. 5.
# (§6) Indicated variants were overexpressed using lentiviral vectors two weeks prior to treatment. Cells were left untreated (co) or exposed to 20 ng/ml of CD95-ligand or 100 ng/ml of EGF-L for 10 minutes and the fraction phosphorylation among total Akt and EGFR measured by Western Blot.
# AKT activation = test: Western blot pAKT (ser 473) relative to total Akt in T98G cells (Example 11); conditions: T98G cells serum starved, untreated or 100 ng/ml EGF-L for 10 mins
# Protocol: as §3, §4
# cell size = test: Average cell size as cell area of cells expressing CD95 variants; conditions: lentiviral overexpression, very similar to CD95 KO cells
# Text: as §1, §2
# EGFR phosphorylation = test: Western blot, fraction of phosphorylated EGFR in cells overexpressing CD95 variants (Example 8); conditions: lentiviral overexpression two weeks prior, untreated or 20 ng/ml CD95-ligand or 100 ng/ml EGF-L for 10 minutes
# Protocol: as §5, §6
Molecule,"effect on cell cycle (cells in G2, S or G1 phase) (cell cycle)","effect on cell cycle (cells in G2, S or G1 phase) (cell cycle; listed as double mutation variant)",changes in membrane lipid composition [1],clustering of cells based on lipid profile changes (UMAP) [1],"effect on cell cycle (cells in G2, S or G1 phase) (cell cycle; listed as triple mutation variant)",EGFR activation (pEGFR normalized to total) (EGFR activation),Caspase 8 cleavage (Caspase 8 cleavage),transferrin uptake (transferrin uptake),"Akt phosphorylation (Ser 473), fraction among total Akt [2]",level of AKT activation (pAKT ser 473 normalized to total) (AKT activation),average cell size (cell size),"EGFR phosphorylation, fraction among total EGFR (EGFR phosphorylation)"
B1,G1 arrest,strong G1 arrest,distinct changes in membrane lipid composition,clustered similarly,–,–,–,–,–,–,–,–
B2,G1 arrest,–,distinct changes in membrane lipid composition,very similar clustering to the KO cells,strong G1 arrest,increase in the EGFR activation,noticeable Caspase 8 cleavage,significantly reduced transferrin uptake,reduced Akt phosphorylation,decrease in the level of AKT activation,decreased,increased EGFR phosphorylation
B3,–,–,–,clustered similarly,–,–,–,significantly reduced transferrin uptake,–,–,–,–
